Here are results for one molecule from patent US20200289608A1 (FUJITA ACADEMY, published 2020).

This experiment addresses T1, cyclic nucleotide-gated channel beta 3 (CNGB3) (human, UniProt Q9NQW8 1-809, limits assumed).
T1 construct: Endogenous protein in patient material; also called human CNGB3
T1 sequence (looked up): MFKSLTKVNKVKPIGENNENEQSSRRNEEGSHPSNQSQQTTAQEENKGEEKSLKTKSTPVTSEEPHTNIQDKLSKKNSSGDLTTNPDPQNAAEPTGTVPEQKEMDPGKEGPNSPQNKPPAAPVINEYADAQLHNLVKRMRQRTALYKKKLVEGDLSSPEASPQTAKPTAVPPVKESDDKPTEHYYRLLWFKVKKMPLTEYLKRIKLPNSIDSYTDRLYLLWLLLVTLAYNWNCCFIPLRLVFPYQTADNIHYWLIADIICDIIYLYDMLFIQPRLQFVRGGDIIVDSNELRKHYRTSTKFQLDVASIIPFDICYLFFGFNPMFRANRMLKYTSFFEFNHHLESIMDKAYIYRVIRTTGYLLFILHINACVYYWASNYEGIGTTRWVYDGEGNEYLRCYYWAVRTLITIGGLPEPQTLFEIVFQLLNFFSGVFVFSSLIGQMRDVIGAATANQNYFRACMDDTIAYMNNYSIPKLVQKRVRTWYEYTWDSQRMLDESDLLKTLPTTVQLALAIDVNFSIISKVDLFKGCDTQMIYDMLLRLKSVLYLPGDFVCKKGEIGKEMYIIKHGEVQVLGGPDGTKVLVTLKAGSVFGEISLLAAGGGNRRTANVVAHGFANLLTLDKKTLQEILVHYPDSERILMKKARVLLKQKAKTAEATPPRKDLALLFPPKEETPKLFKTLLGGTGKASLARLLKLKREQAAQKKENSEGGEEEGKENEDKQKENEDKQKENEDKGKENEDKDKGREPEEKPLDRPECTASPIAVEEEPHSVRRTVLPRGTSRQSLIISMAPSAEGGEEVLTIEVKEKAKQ
The experiment is described as follows: avidin blotting: serum exosome proteins after SDS-PAGE on PVDF, probed with 1.0 ug/mL biotinylated Z13 peptide and HRP-avidin. The protocol: The exosome was isolated from the serum using Exosome Isolation Kit (manufactured by Fujifilm Wako Pure Chemical Industries, Ltd.) according to the manufacturer's instruction. Specifically, first, the serum was centrifuged at 1,000×g at 4° C.° for 20 minutes, and the supernatant was recovered. The collected supernatant was centrifuged at 10,000×g at 4° C. for 30 minutes, and the supernatant was transferred to a new tube. Subsequently, 1.0 mL of the supernatant was mixed with exosome capture beads with a rotator at 4° C. for 180 minutes. Subsequently, after washing the capture beads, the exosome was eluted with 100 μL of an elution buffer and stored at −20° C.
An exosome isolated from 800 μL of serum was mixed with a concentrated Laemmli buffer to prepare a measurement sample. The measurement sample was isolated by SDS-PAGE and then transferred to a PVDF membrane. The PVDF membrane was blocked in 5% BSA-containing TBST (0.1 v/v % Tween-20) at room temperature for 60 minutes. The PVDF membrane after blotting was washed and incubated overnight at 4° C.° in 1.0 μg/mL of biotinylated Z13 peptide-containing TBST. […] The CNGB3 on the membrane was detected using a CCD camera system (manufactured by ATTO) and ECL prime (manufactured by GE Healthcare). […]

Where no end group is shown, it is not given here.

B1: biotinylated Z13 peptide (peptide)
peptide: VRRADNRPG
modifications: also: biotin bound, position not given here
notes: Synthesized by GenScript; used at 1.0 ug/mL as the probe in avidin blotting, detected with HRP-avidin
For the molecule B1, the binding result is on record as “binds”.
